# Experimental data reported in article PMC2267215.
# Legend:
# [1] = molecular target: NCAM 1FN3–2FN3 (wild-type FN3 domain tandem of human neural cell adhesion molecule) (human); assay: SPR; Biacore 3000, 25 °C; NCAM 1FN3–2FN3 proteins amine-coupled to a CM4 chip (1800 RU wild type, 1900 RU M610R); analytes FGFR1 D1–D3 or D2–D3 at 1–100 μM; HBS-EP running buffer, analytes in PBS; KD estimated from plateau values at equilibrium, very approximate
# [2] = molecular target: FGFR1 D2-D3 (Homo sapiens) (UniProt P11362); settings: cited from earlier work
# [3] = molecular target: NCAM 1FN3–2FN3 M610R mutant (human); assay: SEC; size-exclusion chromatography of the purified NCAM 1FN3–2FN3 proteins; data not shown
# [4] = molecular target: NCAM 1FN3–2FN3 R690E mutant (human); assay: as above
# [5] = molecular target: NCAM 1FN3–2FN3 Y672E mutant (human); assay: as above
substance,measurement,setting,value
"FGFR1 D2–D3 (soluble ectodomain construct of fibroblast growth factor receptor 1, residues 151–364) (from UniProt P11362 151-364) (domain or fragment)",Kd,[1],> 100 µM
NCAM 1FN3-2FN3 (from UniProt P13591),Kd,[2],10 µM
NCAM 1FN3–2FN3 M610R mutant (domain or fragment),stoichiometry N,[3],2
NCAM 1FN3–2FN3 R690E mutant (domain or fragment),stoichiometry N,[4],2
NCAM 1FN3–2FN3 Y672E mutant (domain or fragment),stoichiometry N,[5],2
